Experimental data taken from US20260152559A1 (Janssen / Centocor, published 2026).
Numbering of substitutions follows the chain as printed.

B1: CAR17 (KL2B413_HL) (other)
chain: EVQLVESGGGLVQPGGSLRLSCAASGFTFSSYWMTWVRQAPGKGLEWVANIKQDGSERYYVDSVKGRFTISRDNAKNSLYLQMNSLRAEDTAVYYCARDQNYDILTGHYGMDVWGQGTTVTVSSGGSEGKSSGSGSESKSTGGSEIVLTQSPSFLSASVGDRVTITCRASQGISSYLSWYQQKPGKAPKLLIYATSTLQSGVPSRFSGSGSGTEFTLTISSLQPEDFATYYCQQLNSYPRTFGQGTKVEIKTSTPAPRPPTPAPTIASQPLSLRPEACRPAAGGAVHTRGLDFACDIYIWAPLAGTCGVLLLSLVITLYCKRGRKKLLYIFKQPFMRPVQTTQEEDGCSCRFPEEEEGGCELRVKFSRSADAPAYKQGQNQLYNELNLGRREEYDVLDKRRGRDPEMGGKPRRKNPQEGLYNELQKDKMAEAYSEIGMKGERRRGKGHDGLYQGLSTATKDTYDALHMQALPPR
B2: CAR20 (KL2B359_LH) (other)
chain: EIVLTQSPATLSLSPGERATLSCRASESVEYFGTSLMHWYQQKPGQPPRLLIYAASNVESGIPARFSGSGSGTDFTLTISSVEPEDFAVYFCQQTRKVPYTFGGGTKVEIKGGSEGKSSGSGSESKSTGGSQVQLQESGPGLVKPSQTLSLTCTVSGNSITSDYAWNWIRQFPGKRLEWIGYISYSGSTTYNPSLKSRVTISRDTSKNQFSLKLSSVTAADTAVYYCATGYYYGSGFWGQGTLVTVSSTSTPAPRPPTPAPTIASQPLSLRPEACRPAAGGAVHTRGLDFACDIYIWAPLAGTCGVLLLSLVITLYCKRGRKKLLYIFKQPFMRPVQTTQEEDGCSCRFPEEEEGGCELRVKFSRSADAPAYKQGQNQLYNELNLGRREEYDVLDKRRGRDPEMGGKPRRKNPQEGLYNELQKDKMAEAYSEIGMKGERRRGKGHDGLYQGLSTATKDTYDALHMQALPPR
B3: CAR19 (KL2B359_HL) (other)
chain: QVQLQESGPGLVKPSQTLSLTCTVSGNSITSDYAWNWIRQFPGKRLEWIGYISYSGSTTYNPSLKSRVTISRDTSKNQFSLKLSSVTAADTAVYYCATGYYYGSGFWGQGTLVTVSSGGSEGKSSGSGSESKSTGGSEIVLTQSPATLSLSPGERATLSCRASESVEYFGTSLMHWYQQKPGQPPRLLIYAASNVESGIPARFSGSGSGTDFTLTISSVEPEDFAVYFCQQTRKVPYTFGGGTKVEIKTSTPAPRPPTPAPTIASQPLSLRPEACRPAAGGAVHTRGLDFACDIYIWAPLAGTCGVLLLSLVITLYCKRGRKKLLYIFKQPFMRPVQTTQEEDGCSCRFPEEEEGGCELRVKFSRSADAPAYKQGQNQLYNELNLGRREEYDVLDKRRGRDPEMGGKPRRKNPQEGLYNELQKDKMAEAYSEIGMKGERRRGKGHDGLYQGLSTATKDTYDALHMQALPPR
B4: KL2B494 Fab (binding arm listed in Table 39 for hK2/CD3 bispecific antibodies) (bispecific antibody, V domains shown)
VH: QVQLVESGGGLVQPGGSLRLSCAASGFTFSHYAMSWVRQAPGKGLEWVSTIGGSGGSTYYADSVKGRFTISRDNSKNTLYLQMNSLRAEDTAVYYCAKPHIVMVTALLYDGMDVWGQGTMVTVSS
VL: SSELTQPPSVSVAPGQTARITCGGNNIGSKSVHWYQQKPGQAPVLVVYDDSDRPSGIPERFSGSNSGNTATLTISRVEAGDEADYYCQVWDSSSDHVVFGGGTKLTVL
B5: KL2B30 Fab arm of an hK2/CD3 bispecific antibody (Table 39) (bispecific antibody)
chain 1: QVQLQESGPGLVKPSETLSLTCTVSGGSISSYYWSWIRQPPGKGLEWIGYIYYSGSTNYNPSLKSRVTISVDTSKNQFSLKLSSVTAADTAVYYCAGTTIFGVVTPNFYYGMDVWGQGTTVTVSSASTKGPSVFPLAPSSKSTSGGTAALGCLVKDYFPEPVTVSWNSGALTSGVHTFPAVLQSSGLYSLSSVVTVPSSSLGTQTYICNVNHKPSNTKVDKKVEPKSCDKTHTCPPCPAPEAAGGPSVFLFPPKPKDTLMISRTPEVTCVVVSVSHEDPEVKFNWYVDGVEVHNAKTKPREEQYNSTYRVVSVLTVLHQDWLNGKEYKCKVSNKALPAPIEKTISKAKGQPREPQVYVLPPSREEMTKNQVSLLCLVKGFYPSDIAVEWESNGQPENNYLTWPPVLDSDGSFFLYSKLTVDKSRWQQGNVFSCSVMHEALHNHYTQKSLSLSPG
chain 2: DIQMTQSPSFLSASVGDRVTITCRASQGISSYLAWYQQKPGKAPKFLIYAASTLQSGVPSRFSGSGSGTEFTLTISSLQPEDFATYYCQQLNSYPLTFGGGTKVEIKRTVAAPSVFIFPPSDEQLKSGTASVVCLLNNFYPREAKVQWKVDNALQSGNSQESVTEQDSKDSTYSLSSTLTLSKADYEKHKVYACEVTHQGLSSPVTKSFNRGEC
chain 3: DIQMTQSPSSLSASVGDRVTITCRARQSIGTAIHWYQQKPGKAPKLLIKYASESISGVPSRFSGSGSGTDFTLTISSLQPEDFATYYCQQSGSWPYTFGQGTKLEIKGGSEGKSSGSGSESKSTGGSEVQLVESGGGLVKPGGSLRLSCAASGFTFSRYNMNWVRQAPGKGLEWVSSISTSSNYIYYADSVKGRFTFSRDNAKNSLDLQMSGLRAEDTAIYYCTRGWGPFDYWGQGTLVTVSSEPKSSDKTHTCPPCPAPEAAGGPSVFLFPPKPKDTLMISRTPEVTCVVVSVSHEDPEVKFNWYVDGVEVHNAKTKPREEQYNSTYRVVSVLTVLHQDWLNGKEYKCKVSNKALPAPIEKTISKAKGQPREPQVYVYPPSREEMTKNQVSLTCLVKGFYPSDIAVEWESNGQPENNYKTTPPVLDSDGSFALVSKLTVDKSRWQQGNVFSCSVMHEALHNHYTQKSLSLSPG
B6: KL2B53 Fab arm of an hK2/CD3 bispecific antibody (Table 39) (bispecific antibody)
chain 1: EVQLVESGGGVVQPGRSLRLSCVASGFTFSSYDIHWVRQAPGKGLEWVAIISYDGSKKDYTDSVKGRFTISRDNSKNTLYLQMDSLRVEDSAVYSCARESGWSHYYYYGMDVWGQGTMVTVSSASTKGPSVFPLAPSSKSTSGGTAALGCLVKDYFPEPVTVSWNSGALTSGVHTFPAVLQSSGLYSLSSVVTVPSSSLGTQTYICNVNHKPSNTKVDKKVEPKSCDKTHTCPPCPAPEAAGGPSVFLFPPKPKDTLMISRTPEVTCVVVSVSHEDPEVKFNWYVDGVEVHNAKTKPREEQYNSTYRVVSVLTVLHQDWLNGKEYKCKVSNKALPAPIEKTISKAKGQPREPQVYVLPPSREEMTKNQVSLLCLVKGFYPSDIAVEWESNGQPENNYLTWPPVLDSDGSFFLYSKLTVDKSRWQQGNVFSCSVMHEALHNHYTQKSLSLSPG
chain 2: DIVMTQSPSSLSASVGDRVTITCRASQDISNYLAWYQQKPGKVPKFLIYAASTLHSGVPSRFSGSGSGTDFTLTISSLQPEDVATYYCQKYNSAPYTFGQGTRLEIKRTVAAPSVFIFPPSDEQLKSGTASVVCLLNNFYPREAKVQWKVDNALQSGNSQESVTEQDSKDSTYSLSSTLTLSKADYEKHKVYACEVTHQGLSSPVTKSFNRGEC
chain 3: B5 chain 3
B7: KL2B467 Fab (binding arm listed in Table 39 for hK2/CD3 bispecific antibodies) (bispecific antibody, V domains shown)
VH: QVQLVESGGGVVQPGRSLRLSCAASGFTFSYYGMHWVRQAPGKGLEWVAFISYDGSNKYYADSVKGRFTISRDNSKNTLYLQMNSLRAEDTAVYYCAHLPYSGSYWAFDYWGQGTQVTVSS
VL: QSVLTQPPSVSVAPGQTASITCGGDNIGSKSVHWYQQKPGQAPVLVVYDNSDRPSGIPERFSGSNSGTTATLTISRVEAGDEADYYCQVWDSSSDHPVVFGGGTKVTV
B8: CAR4 (HL_HCG5_LCB7_20AA) (other)
chain: QVQLQESGPGLVKPSDTLSLTCAVSGNSITSDYAWNWIRQFPGKGLEWMGYISYSGSTTYNPSLKSRVTISRDTSKNQFSLKLSSVTPVDTAVYYCATGYYYGSGFWGQGTLVTVSSGGSEGKSSGSGSESKSTGGSDIVLTQSPDSLAVSLGERATINCKASESVEYFGTSLMHWYQQKPGQPPKLLIYAASNRESGVPDRFSGSGSGTDFTLTISSVQAEDVAVYYCQQTRKVPYTFGQGTKLEIKTSTPAPRPPTPAPTIASQPLSLRPEACRPAAGGAVHTRGLDFACDIYIWAPLAGTCGVLLLSLVITLYCKRGRKKLLYIFKQPFMRPVQTTQEEDGCSCRFPEEEEGGCELRVKFSRSADAPAYKQGQNQLYNELNLGRREEYDVLDKRRGRDPEMGGKPRRKNPQEGLYNELQKDKMAEAYSEIGMKGERRRGKGHDGLYQGLSTATKDTYDALHMQALPPR
notes: Chimeric antigen receptor on JNL cells or primary human T cells; also called hK2 CAR; pDR000083437
B9: CAR3 (HL_HCF3_LCB7_20AA) (other)
chain: B8 chain with M49I
notes: Chimeric antigen receptor on JNL cells or primary human T cells; also called hK2 CAR; pDR000083436
B10: CAR8 (LH_LCB7_HCF3_20AA) (other)
chain: DIVLTQSPDSLAVSLGERATINCKASESVEYFGTSLMHWYQQKPGQPPKLLIYAASNRESGVPDRFSGSGSGTDFTLTISSVQAEDVAVYYCQQTRKVPYTFGQGTKLEIKGGSEGKSSGSGSESKSTGGSQVQLQESGPGLVKPSDTLSLTCAVSGNSITSDYAWNWIRQFPGKGLEWIGYISYSGSTTYNPSLKSRVTISRDTSKNQFSLKLSSVTPVDTAVYYCATGYYYGSGFWGQGTLVTVSSTSTPAPRPPTPAPTIASQPLSLRPEACRPAAGGAVHTRGLDFACDIYIWAPLAGTCGVLLLSLVITLYCKRGRKKLLYIFKQPFMRPVQTTQEEDGCSCRFPEEEEGGCELRVKFSRSADAPAYKQGQNQLYNELNLGRREEYDVLDKRRGRDPEMGGKPRRKNPQEGLYNELQKDKMAEAYSEIGMKGERRRGKGHDGLYQGLSTATKDTYDALHMQALPPR
notes: Chimeric antigen receptor on JNL cells or primary human T cells; also called hK2 CAR; pDR000083443
B11: CAR9 (LH_LCB7_HCG5_20AA) (other)
chain: B10 chain with I180M
notes: Chimeric antigen receptor on JNL cells or primary human T cells; also called hK2 CAR; pDR000083444

These molecules were tested against hK2 on target cells (VCaP, LNCaP/hK2 and other hK2 positive tumor cells) (human, UniProt P20151 19-261) (assay: cell-based or functional assay).
Sequence of hK2 on target cells (VCaP, LNCaP/hK2 and other hK2 positive tumor cells) (P20151 19-261): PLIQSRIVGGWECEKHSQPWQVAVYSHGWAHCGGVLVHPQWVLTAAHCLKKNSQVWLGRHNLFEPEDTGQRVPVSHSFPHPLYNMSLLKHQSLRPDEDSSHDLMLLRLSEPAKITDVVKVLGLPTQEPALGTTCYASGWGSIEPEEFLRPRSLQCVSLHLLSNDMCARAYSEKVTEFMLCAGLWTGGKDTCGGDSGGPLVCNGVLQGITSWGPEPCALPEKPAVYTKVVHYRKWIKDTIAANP

| Molecule | tumor cell growth inhibition (TGI) of VCaP cells, IncuCyte killing assay, 96 hours, E:T 1:1 or 0.5:1 |
| --- | --- |
| B1 | ~100% |
| B2 | ~100% |
| B3 | ~100% |

What follows are molecules tested against human CD3 on cells (Jurkat cells, primary human T cells) (human) (UniProt P07766) (assay: flow cytometry, 10 nM antibody on Jurkat cells; no-antibody background 2075.61).
Sequence of human CD3 on cells (Jurkat cells, primary human T cells) (human) (P07766 23-207 limits assumed): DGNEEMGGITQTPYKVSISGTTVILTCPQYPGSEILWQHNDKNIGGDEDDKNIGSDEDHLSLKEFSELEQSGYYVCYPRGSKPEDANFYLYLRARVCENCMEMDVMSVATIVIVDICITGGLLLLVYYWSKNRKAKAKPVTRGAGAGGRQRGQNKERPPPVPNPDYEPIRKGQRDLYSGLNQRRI

| Molecule | MFI (mean fluorescence index) (arbitrary units) |
| --- | --- |
| UCHT1 (antibody) | 89200 |

The molecules below were run against T1, kallikrein related peptidase 2 (hK2), soluble (human, UniProt P20151 19-261, biotin label in the CAR staining assays (site not stated)) (assay: SPR; bispecific antibody captured on anti-Fc sensor chip, soluble hK2 injected; 1:1 Langmuir fit).
T1 construct: also called KLK2; human KLK2 protein
T1 sequence (P20151 19-261): as the sequence (P20151 19-261) above

| Molecule | Kd |
| --- | --- |
| B4 | 0.06 nM |
| B5 | 2 nM |
| B6 | 0.1 nM |
| B7 | 0.09 nM |

These molecules were tested against T1, kallikrein related peptidase 2 (hK2), … (assay: flow cytometry, primary human T cells transduced with the CAR lentivirus (MOI 3), biotinylated hK2 (1 ug/ml) then streptavidin-PE, 14 days after transduction; UTD gate 0.086 [contd]).

| Molecule | % of cells in the hK2CAR+ CD3+ gate |
| --- | --- |
| B8 | 42.7% |
| B9 | 29.4% |
| B10 | 21.5% |
| B11 | 30.6% |
